Reference: patent publication US20180099015A1 (ADCURE BIOTECHNOLOGIES, published 2018)

Columns and labels:
[1] = biological target: blood coagulation factor X (UniProt P00742); experiment: FX binding to immobilised virus (2900 RU); method not given, SPR (Biacore) named for FIG. 14B
[2] = biological target: T1, sCAR (UniProt P78310 20-237); experiment: not stated; row marked with an asterisk that has no footnote
T1 construct: also called soluble coxsackievirus and Ad receptor (CAR)
T1 sequence: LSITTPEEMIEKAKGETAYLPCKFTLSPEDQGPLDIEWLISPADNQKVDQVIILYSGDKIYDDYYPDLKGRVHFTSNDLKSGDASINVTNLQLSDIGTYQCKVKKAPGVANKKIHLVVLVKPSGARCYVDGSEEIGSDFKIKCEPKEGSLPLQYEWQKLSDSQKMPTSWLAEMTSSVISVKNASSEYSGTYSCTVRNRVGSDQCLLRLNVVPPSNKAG

blood coagulation factor X, sequence (P00742 41-488 limits assumed): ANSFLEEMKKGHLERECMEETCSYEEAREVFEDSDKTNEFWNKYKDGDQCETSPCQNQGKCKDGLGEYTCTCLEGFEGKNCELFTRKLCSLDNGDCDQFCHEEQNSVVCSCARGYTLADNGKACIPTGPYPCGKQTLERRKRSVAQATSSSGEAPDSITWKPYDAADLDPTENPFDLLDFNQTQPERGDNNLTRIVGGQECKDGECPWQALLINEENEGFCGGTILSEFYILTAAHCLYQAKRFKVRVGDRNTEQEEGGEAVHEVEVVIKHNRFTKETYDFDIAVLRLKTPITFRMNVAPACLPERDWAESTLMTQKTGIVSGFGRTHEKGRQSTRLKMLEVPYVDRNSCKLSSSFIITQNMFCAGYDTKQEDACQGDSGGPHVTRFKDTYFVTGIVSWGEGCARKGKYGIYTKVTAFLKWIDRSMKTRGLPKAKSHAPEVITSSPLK

human adenovirus serotype 4 (Ad4), virus particle (from UniProt P49810)
Kd [1]: 2480 nM

B1: Ad5 partner of the row Ad5-sCAR* (other)
chain: GAITVGNKNNDKLTLWTTPAPSPNCRLNAEKDAKLTLVLTKCGSQILATVSVLAVKGSLAPISGTVQSAHLIIRFDENGVLLNNSFLDPEYWNFRNGDLTEGTAYTNAVGFMPNLSAYPKSHGKTAKSNIVSQVYLNGDKTKPVTLTITLNGTQETGDTTPSAYSMSFSWDWSGHNYINEIFATSSYTFSYIAQE
Kd [2]: 7.9 nM

B2: Ad12 partner of the row Ad12-sCAR* (other)
chain: SNTPYDPLTLWTTPDPPPNCSLIQELDAKLTLCLTKNGSIVNGIVSLVGVKGNLLNIQSTTTTVGVHLVFDEQGRLITSTPTALVPQASWGYRQGQSVSTNTVTNGLGFMPNVSAYPRPNASEAKSQMVSLTYLQGDTSKPITMKVAFNGITSLNGYSLTFMWSGLSNYINQPFSTPSCSFSYITQE
Kd [2]: 15 nM
